Laboratory results published in patent US20200255533A1 (NUMAB THERAPEUTICS, published 2020).
Substitutions are numbered along the chain they refer to. Names may count otherwise.

B1: Vκ3/VH4 consensus λ-capped (TNF-specific scFv) (scFv)
scFv: DIVLTQSPATLSLSPGERATLSCQASQSISDWLAWYQQKPGQAPRLLIYGASRLASGVPARFSGSGSGTDFTLTISSLEPEDFAVYYCQQGWSDSYVDNLFGGGTKLTVLGGGGGSGGGGSGGGGSGGGGSQVQLQESGPGLVKPSETLSLTCTVSGFSLSSGAMSWIRQPPGKGLEWIGVIISSGATYYASWAKGRVTISVDTSKNQFSLKLSSVTAADTAVYYCARGGPDDSNSMGTFDPWGQGTLVTVSS
notes: scFv
B2: Vκ3/VH4 consensus (T24K, T84S) λ-capped (TNF-specific scFv) (scFv)
scFv: B1 scFv with T154K, T204S
notes: scFv; also called Vκ3/VH4mut
B3: Vκ1/VH4 consensus λ-capped (TNF-specific scFv) (scFv)
scFv: DIQMTQSPSSLSASVGDRVTITCQASQSISDWLAWYQQKPGKAPKLLIYGASRLASGVPSRFSGSGSGTDFTLTISSLQPEDFATYYCQQGWSDSYVDNLFGGGTKLTVLGGGGGSGGGGSGGGGSGGGGSQVQLQESGPGLVKPSETLSLTCTVSGFSLSSGAMSWIRQPPGKGLEWIGVIISSGATYYASWAKGRVTISVDTSKNQFSLKLSSVTAADTAVYYCARGGPDDSNSMGTFDPWGQGTLVTVSS
notes: scFv; also called capped Vκ1/VH4 consensus molecule
B4: Vκ1/VH4 consensus (T24K, T84S) λ-capped (TNF-specific scFv) (scFv)
scFv: B3 scFv with T154K, T204S
notes: scFv; also called Vκ1/VH4mut; mutant variant of Vκ1/VH4

Biological target: human TNF (human, UniProt P01375 77-233)
Experiment: SPR, scFv

Chain of human TNF (P01375 77-233 limits assumed): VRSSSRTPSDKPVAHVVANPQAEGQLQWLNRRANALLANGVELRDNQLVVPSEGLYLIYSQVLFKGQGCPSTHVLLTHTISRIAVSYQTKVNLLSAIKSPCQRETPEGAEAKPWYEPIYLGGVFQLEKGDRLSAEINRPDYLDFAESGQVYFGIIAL

| Binder | Kd [pM] | koff [s⁻¹] | kon [M⁻¹ s⁻¹] |
| --- | --- | --- | --- |
| B1 | 119 | 5.25e-05 | 440000 |
| B2 | 79.3 | 3.09e-05 | 390000 |
| B3 | 53.3 | 3.36e-05 | 631000 |
| B4 | 43 | 3.28e-05 | 764000 |
